{"source": "patent US20030096753A1", "about": "(published 2003)", "key": {"[1]": {"target": "T1, Purified recombinant human NGF (human, UniProt P01138 122-241, limits assumed, radioiodinated with 125I (lactoperoxidase method) where used as tracer)", "T1 construct": "also called unlabeled human NGF", "T1 sequence (P01138 122-241 limits assumed)": "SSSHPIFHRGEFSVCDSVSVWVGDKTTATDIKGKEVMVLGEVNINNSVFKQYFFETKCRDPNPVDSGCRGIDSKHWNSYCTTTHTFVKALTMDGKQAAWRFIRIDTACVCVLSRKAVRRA", "assay": "competitive binding assay, 125I-NGF on A875 cells; reference TrkAIg1,2", "procedure": "(§1) The binding affinity of ¹²⁵I-NGF to the Ig-like domains of TrkA was determined by a competitive binding assay using the melanoma cell line A875 American Tissue Culture Collection (ATCC) which expresses the NGF receptor p75^NGFR.\n(§2) Purified recombinant human NGF was radioiodinated with I¹²⁵ using a lactoperoxidase method and equilibrium binding with [¹²⁵I]-NGF was carried out (Treanor et al., 1991; Neuroscience Letters 121 p73-76). Briefly A875 cells (10⁶ per ml) were incubated with [¹²⁵I]-NGF (0.14 nM) and serial dilutions of unlabeled human NGF (concentration range: 10⁻⁶ M to 1×10⁻¹¹ M), TrkAIg1,2 (concentration range: 4×10⁻⁶ M to 1×10⁻¹¹ M) or TrkAIg2 (concentration range 5×10⁻⁶ M to 1×10 ⁻¹¹ M). Tubes were shaken vigorously at room temperature for 1 hr. 100 μl aliquots were then layered over 200 μl sucrose (0.15 M in binding buffer) in Beckman tubes. After centrifugation (15 seconds at 20,000 g) bound and free [¹²⁵I]-NGF were separated by freezing the tubes in liquid nitrogen and determining the bound [¹²⁵I]-NGF of the cell pellet. Binding reactions were carried out in triplicate. Counts were corrected for background and specific binding was between 85-87% of total binding. The competitive binding assay (FIG. 9) allowed estimation of the binding affinity of [¹²⁵I]-NGF to the recombinant TrkAIg2 protein. […]"}, "[2]": {"target": "NGF (source and species not stated; used in the BiaCore study and on PC12 cells)", "sequence (chain, as listed by the source)": "as the sequence (P01138 122-241 limits assumed) above", "assay": "SPR (BiaCore-X), TrkAIg2 amine-coupled to the chip, NGF 40 nM to 500 nM as analyte, BiaEval 3.0 fit", "procedure": "TrkAIg2 was covalently attached to the surface of the sensor chip by coupling with amine groups on TrkAIg2 to carboxyl groups on the surface using BiaCore Amine Coupling kit and varying concentrations of NGF passed over at a constant flow rate of 20 μl/min for two minutes. Data were collected for a range of NGF concentrations of 1 μM to 1 nM. […] However, data collected for the range 40 nM to 500 nM could be successfully evaluated."}, "[3]": {"target": "7S NGF (complex of 2.5S (β-NGF) and γ NGF)", "sequence (P01139 122-241, one chain of several)": "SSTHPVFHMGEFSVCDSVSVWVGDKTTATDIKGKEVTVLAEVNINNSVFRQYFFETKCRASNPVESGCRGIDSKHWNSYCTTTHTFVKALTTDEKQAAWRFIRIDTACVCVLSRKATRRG", "assay": "cell-based or functional assay"}, "[4]": {"target": "T1, Purified recombinant human NGF", "assay": "competitive binding assay, 125I-NGF on A875 cells (p75NGFR), numerical fit", "procedure": "as §1, §2"}, "[5]": {"target": "T1, Purified recombinant human NGF", "assay": "displacement binding assays of the two Poros 20HQ peaks"}}}
{"binder": "TrkAIg2 (his TrkAIg2; TrkA Ig-like sub-domain 2 together with the proline rich region, amino acids 253-375; first, active peak from Poros 20HQ) (receptor, The range 253-375 counts on the mature extracellular domain, not on the precursor; Removal of the His tag is not reported; also called TrkIg2; TrkAIg2 domain) MGSSHHHHHHSSGLVPRGSHMPASVQLHTAVEMHHWCIPFSVDGQPAPSLRWLFNGSVLNETSFIFTEFLEPAANETVRHGCLRLNQPTHVNNGNYTLLAANPFGQASASIMAAFMDNPFEFNPEDPIPDTNSTSGDPVEKKDE", "values": [{"measurement": "fold IC50 against TrkAIg1,2", "setting": "[1]", "value": 3, "unit": "fold"}, {"measurement": "Kd", "setting": "[2]", "value": 11.8, "unit": "nM"}, {"measurement": "NGF-induced plasma extravasation in rat skin, co-injection", "setting": "[3]", "value": 10, "unit": "fold excess"}]}
{"binder": "TrkAIg1,2 (the two immunoglobulin-like domains and proline-rich region of TrkA, amino acids 160-375) (receptor, The range counts on the mature extracellular domain; also called TrkAIg1,2 domain) MGSSHHHHHHSSGLVPRGSHMLEGVPTLKVQVPNASVDVGDDVLLRCQVEGRGLEQAGWILTELEQSATVMKSGGLPSLGLTLANVTSDLNRKNLTCWAENDVGRAEVSVQVNVSFPASVQLHTAVEMHHWCIPFSVDGQPAPSLRWLFNGSVLNETSFIFTEFLEPAANETVRHGCLRLNQPTHVNNGNYTLLAANPFGQASASIMAAFMDNPFEFNPEDPIPDTNSTSGDPVEKKDE", "values": [{"measurement": "Kd", "setting": "[4]", "value": 3.3, "unit": "nM"}]}
{"binder": "TrkAIg1 (his TrkAIg1; TrkA Ig-like sub-domain 1, amino acids 160-252) (receptor, Two peaks eluted from Poros 20HQ; both were tested in the displacement assay; also called first immunoglobulin-like domain) MGSSHHHHHHSSGLVPRGSHMLEGVPTLKVQVPNASVDVGDDVLLRCQVEGRGLEQAGWILTELEQSATVMKSGGLPSLGLTLANVTSDLNRKNLTCWAENDVGRAEVSVQVNVSF", "values": [{"measurement": "binding result", "setting": "[5]", "value": "no binding"}]}
